Source: the supplement of paper PMC11316812
± gives the standard deviation of the averaged measurements.

What was measured:
MCF7 = experiment: percentage of EdU-negative (G0-arrested) nuclei per well, 72 h; higher = more G0 arrest; details: reference: sequence is the full UniProt precursor, the tested protein was the secreted form or ectodomain
hTERT-HMEC = experiment: as above; details: reference: sequence is the full UniProt precursor, the tested protein was the secreted form or ectodomain
[1] = protein concentration 0.02175 µM
[2] = protein concentration 0.2175 µM
[3] = protein concentration 0.0257143 µM
[4] = protein concentration 0.257143 µM
[5] = protein concentration 0.0134286 µM
[6] = protein concentration 0.134286 µM
[7] = protein concentration 0.0225 µM
[8] = protein concentration 0.0055 µM
[9] = protein concentration 0.0242225 µM
[10] = protein concentration 0.242225 µM
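Also: secreted proteins added to cultured cells, EdU pulse at the end, nuclei found by Hoechst imaging, EdU status from nuclear versus surrounding ring intensity ratio, PBS as neutral control.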

MPAGRRGPAAQSARRPPPLLPLLLLLCVLGAPRAGSGAHTAVISPQDPTLLIGSSLLATCSVHGDPPGATAEGLYWTLNGRRLPPELSRVLNASTLALALANLNGSRQRSGDNLVCHARDGSILAGSCLYVGLPPEKPVNISCWSKNMKDLTCRWTPGAHGETFLHTNYSLKYKLRWYGQDNTCEEYHTVGPHSCHIPKDLALFTPYEIWVEATNRLGSARSDVLTLDILDVVTTDPPPDVHVSRVGGLEDQLSVRWVSPPALKDFLFQAKYQIRYRVEDSVDWKVVDDVSNQTSCRLAGLKPGTVYFVQVRCNPFGIYGSKKAGIWSEWSHPTAASTPRSERPGPGGGACEPRGGEPSSGPVRRELKQFLGWLKKHAYCSNLSFRLYDQWRAWMQKSHKTRNQDEGILPSGRRGTARGPAR
percentage of EdU-negative (MCF7; protein concentration 0.006 µM): 25.3 ± 0.23%
percentage of EdU-negative (MCF7; protein concentration 0.06 µM): 28.9 ± 1.2%
percentage of EdU-negative (hTERT-HMEC; protein concentration 0.006 µM): 4.58 ± 0.39%
percentage of EdU-negative (hTERT-HMEC; protein concentration 0.06 µM): 5.19 ± 0.85%

MLLPLLLLLPMCWAVEVKRPRGVSLTNHHFYDESKPFTCLDGSATIPFDQVNDDYCDCKDGSDEPGTAACPNGSFHCTNTGYKPLYIPSNRVNDGVCDCCDGTDEYNSGVICENTCKEKGRKERESLQQMAEVTREGFRLKKILIEDWKKAREEKQKKLIELQAGKKSLEDQVEMLRTVKEEAEKPEREAKEQHQKLWEEQLAAAKAQQEQELAADAFKELDDDMDGTVSVTELQTHPELDTDGDGALSEAEAQALLSGDTQTDATSFYDRVWAAIRDKYRSEALPTDLPAPSAPDLTEPKEEQPPVPSSPTEEEEEEEEEEEEEAEEEEEEEDSEEAPPPLSPPQPASPAEEDKMPPYDEQTQAFIDAAQEARNKFEEAERSLKDMEESIRNLEQEISFDFGPNGEFAYLYSQCYELTTNEYVYRLCPFKLVSQKPKLGGSPTSLGTWGSWIGPDHDKFSAMKYEQGTGCWQGPNRSTTVRLLCGKETMVTSTTEPSRCEYLMELMTPAACPEPPPEAPTEDDHDEL
percentage of EdU-negative (MCF7; [1]): 27.5 ± 0.87%
percentage of EdU-negative (MCF7; [2]): 24.9 ± 0.62%
percentage of EdU-negative (hTERT-HMEC; [1]): 5.19 ± 1.2%
percentage of EdU-negative (hTERT-HMEC; [2]): 5.7 ± 0.68%

MPGPWLLLALALTLNLTGVPGGRAQPEAAQQEAVTAAEHPGLDDFLRQVERLLFLRENIQRLQGDQGEHSASQIFQSDWLSKRQHPGKREEEEEEGVEEEEEEEGGAVGPHKRQHPGRREDEASWSVDVTQHKRQHPGRRSPWLAYAVPKRQHPGRRLADPKAQRSWEEEEEEEEREEDLMPEKRQHPGKRALGGPCGPQGAYGQAGLLLGLLDDLSRSQGAEEKRQHPGRRAAWVREPLEE
percentage of EdU-negative (MCF7; [3]): 23.3 ± 4.8%
percentage of EdU-negative (MCF7; [4]): 25.8 ± 1.8%
percentage of EdU-negative (hTERT-HMEC; [3]): 5.72 ± 0.18%
percentage of EdU-negative (hTERT-HMEC; [4]): 5.31 ± 0.67%

P20908
percentage of EdU-negative (MCF7; [5]): 23.71 ± 0.12%
percentage of EdU-negative (MCF7; [6]): 28.6 ± 1.4%
percentage of EdU-negative (hTERT-HMEC; [5]): 5.6 ± 0.17%
percentage of EdU-negative (hTERT-HMEC; [6]): 25.8 ± 0.52%

MAWMLLLILIMVHPGSCALWVSQPPEIRTLEGSSAFLPCSFNASQGRLAIGSVTWFRDEVVPGKEVRNGTPEFRGRLAPLASSRFLHDHQAELHIRDVRGHDASIYVCRVEVLGLGVGTGNGTRLVVEKEHPQLGAGTVLLLRAGFYAVSFLSVAVGSTVYYQGKCLTWKGPRRQLPAVVPAPLPPPCGSSAHLLPPVPGG
percentage of EdU-negative (MCF7; [7]): 22.75 ± 0.21%
percentage of EdU-negative (MCF7; protein concentration 0.225 µM): 23.2 ± 1.3%
percentage of EdU-negative (hTERT-HMEC; [7]): 4.49 ± 0.81%
percentage of EdU-negative (hTERT-HMEC; protein concentration 0.225 µM): 4.92 ± 0.2%

MRLLVLLWGCLLLPGYEALEGPEEISGFEGDTVSLQCTYREELRDHRKYWCRKGGILFSRCSGTIYAEEEGQETMKGRVSIRDSRQELSLIVTLWNLTLQDAGEYWCGVEKRGPDESLLISLFVFPGPCCPPSPSPTFQPLATTRLQPKAKAQQTQPPGLTSPGLYPAATTAKQGKTGAEAPPLPGTSQYGHERTSQYTGTSPHPATSPPAGSSRPPMQLDSTSAEDTSPALSSGSSKPRVSIPMVRILAPVLVLLSLLSAAGLIAFCSHLLLWRKEAQQATETQRNEKFCLSRLTAEEKEAPSQAPEGDVISMPPLHTSEEELGFSKFVSA [K7EL06]
percentage of EdU-negative (MCF7; [7]): 26 ± 1.2%
percentage of EdU-negative (MCF7; protein concentration 0.225 µM): 24.7 ± 3.6%
percentage of EdU-negative (hTERT-HMEC; [7]): 5.2 ± 0.081%
percentage of EdU-negative (hTERT-HMEC; protein concentration 0.225 µM): 5.26 ± 0.58%

MRLLAKIICLMLWAICVAEDCNELPPRRNTEILTGSWSDQTYPEGTQAIYKCRPGYRSLGNVIMVCRKGEWVALNPLRKCQKRPCGHPGDTPFGTFTLTGGNVFEYGVKAVYTCNEGYQLLGEINYRECDTDGWTNDIPICEVVKCLPVTAPENGKIVSSAMEPDREYHFGQAVRFVCNSGYKIEGDEEMHCSDDGFWSKEKPKCVEISCKSPDVINGSPISQKIIYKENERFQYKCNMGYEYSERGDAVCTESGWRPLPSCEEKSCDNPYIPNGDYSPLRIKHRTGDEITYQCRNGFYPATRGNTAKCTSTGWIPAPRCTLKPCDYPDIKHGGLYHENMRRPYFPVAVGKYYSYYCDEHFETPSGSYWDHIHCTQDGWSPAVPCLRKCYFPYLENGYNQNYGRKFVQGKSIDVACHPGYALPKAQTTVTCMENGWSPTPRCIRVKTCSKSSIDIENGFISESQYTYALKEKAKYQCKLGYVTADGETSGSITCGKDGWSAQPTCIKSCDIPVFMNARTKNDFTWFKLNDTLDYECHDGYESNTGSTTGSIVCGYNGWSDLPICYERECELPKIDVHLVPDRKKDQYKVGEVLKFSCKPGFTIVGPNSVQCYHFGLSPDLPICKEQVQSCGPPPELLNGNVKEKTKEEYGHSEVVEYYCNPRFLMKGPNKIQCVDGEWTTLPVCIVEESTCGDIPELEHGWAQLSSPPYYYGDSVEFNCSESFTMIGHRSITCIHGVWTQLPQCVAIDKLKKCKSSNLIILEEHLKNKKEFDHNSNIRYRCRGKEGWIHTVCINGRWDPEVNCSMAQIQLCPPPPQIPNSHNMTTTLNYRDGEKVSVLCQENYLIQEGEEITCKDGRWQSIPLCVEKIPCSQPPQIEHGTINSSRSSQESYAHGTKLSYTCEGGFRISEENETTCYMGKWSSPPQCEGLPCKSPPEISHGVVAHMSDSYQYGEEVTYKCFEGFGIDGPAIAKCLGEKWSHPPSCIKTDCLSLPSFENAIPMGEKKDVYKAGEQVTYTCATYYKMDGASNVTCINSRWTGRPTCRDTSCVNPPTVQNAYIVSRQMSKYPSGERVRYQCRSPYEMFGDEEVMCLNGNWTEPPQCKDSTGKCGPPPPIDNGDITSFPLSVYAPASSVEYQCQNLYQLEGNKRITCRNGQWSEPPKCLHPCVISREIMENYNIALRWTAKQKLYSRTGESVEFVCKRGYRLSSRSHTLRTTCWDGKLEYPTCAKR
percentage of EdU-negative (MCF7; [8]): 25.1 ± 0.8%
percentage of EdU-negative (MCF7; protein concentration 0.055 µM): 25.5 ± 2.4%
percentage of EdU-negative (hTERT-HMEC; [8]): 5.14 ± 0.38%
percentage of EdU-negative (hTERT-HMEC; protein concentration 0.055 µM): 7.65 ± 0.92%

Q8NBS9
percentage of EdU-negative (MCF7; [9]): 27.1 ± 0.28%
percentage of EdU-negative (MCF7; [10]): 27.4 ± 0.94%
percentage of EdU-negative (hTERT-HMEC; [9]): 4.77 ± 0.42%
percentage of EdU-negative (hTERT-HMEC; [10]): 8.37 ± 0.54%
